Measurements published in patent US20210395346A1 (SEOUL NATIONAL UNIVERSITY R AND DB FOUNDATION, published 2021).

Columns and labels:
[1] = molecular target: T1, SARS-CoV-2 RBD variant E484K (New York) (SARS-CoV-2, UniProt P0DTC2 319-541); assay: ELISA (FIG. 18B)
T1 construct: domain: RBD

[2] = molecular target: T2, SARS-CoV-2 RBD variant K417T, E484K, N501Y (Brazil) (SARS-CoV-2, UniProt P0DTC2 319-541); assay: ELISA (FIG. 18B)
T2 construct: domain: RBD

[3] = molecular target: T3, SARS-CoV-2 RBD variant S477N (New York) (SARS-CoV-2, UniProt P0DTC2 319-541); assay: ELISA (FIG. 18B)
T3 construct: domain: RBD

[4] = molecular target: T4, SARS-CoV-2 RBD variant N501Y (UK) (SARS-CoV-2, UniProt P0DTC2 319-541); assay: ELISA (FIG. 18B)
T4 construct: domain: RBD

[5] = molecular target: T5, SARS-CoV-2 RBD variant L452R (California) (SARS-CoV-2, UniProt P0DTC2 319-541); assay: ELISA (FIG. 18B)
T5 construct: domain: RBD

[6] = molecular target: T6, SARS-CoV-2 RBD variant E484Q, L452R (India) (SARS-CoV-2, UniProt P0DTC2 319-541); assay: ELISA (FIG. 18B)
T6 construct: domain: RBD

[7] = molecular target: T7, SARS-CoV-2 RBD variant K417N, E484K, N501Y (South Africa) (SARS-CoV-2, UniProt P0DTC2 319-541); assay: ELISA (FIG. 18B)
T7 construct: domain: RBD

[8] = molecular target: T8, SARS-CoV-2 RBD variant K417V, N439K (Europe) (SARS-CoV-2, UniProt P0DTC2 319-541); assay: ELISA (FIG. 18B)
T8 construct: domain: RBD

[9] = molecular target: T9, SARS-CoV-2 RBD variant N439K (Europe) (SARS-CoV-2, UniProt P0DTC2 319-541); assay: ELISA (FIG. 18B)
T9 construct: domain: RBD

[10] = molecular target: T1, SARS-CoV-2 RBD variant E484K (New York); assay: ELISA (FIG. 18A)
[11] = molecular target: T2, SARS-CoV-2 RBD variant K417T, E484K, …; assay: ELISA (FIG. 18A)
[12] = molecular target: T3, SARS-CoV-2 RBD variant S477N (New York); assay: ELISA (FIG. 18A)
[13] = molecular target: T4, SARS-CoV-2 RBD variant N501Y (UK); assay: ELISA (FIG. 18A)
[14] = molecular target: T5, SARS-CoV-2 RBD variant L452R …; assay: ELISA (FIG. 18A)
[15] = molecular target: T6, SARS-CoV-2 RBD variant E484Q, L452R …; assay: ELISA (FIG. 18A)
[16] = molecular target: T7, SARS-CoV-2 RBD variant K417N, E484K, …; assay: ELISA (FIG. 18A)
[17] = molecular target: T8, SARS-CoV-2 RBD variant K417V, N439K …; assay: ELISA (FIG. 18A)
[18] = molecular target: T9, SARS-CoV-2 RBD variant N439K (Europe); assay: ELISA (FIG. 18A)
[19] = molecular target: T1, SARS-CoV-2 RBD variant E484K (New York); assay: ELISA (FIG. 18C)
[20] = molecular target: T2, SARS-CoV-2 RBD variant K417T, E484K, …; assay: ELISA (FIG. 18C)
[21] = molecular target: T3, SARS-CoV-2 RBD variant S477N (New York); assay: ELISA (FIG. 18C)
[22] = molecular target: T4, SARS-CoV-2 RBD variant N501Y (UK); assay: ELISA (FIG. 18C)
[23] = molecular target: T5, SARS-CoV-2 RBD variant L452R …; assay: ELISA (FIG. 18C)
[24] = molecular target: T6, SARS-CoV-2 RBD variant E484Q, L452R …; assay: ELISA (FIG. 18C)
[25] = molecular target: T7, SARS-CoV-2 RBD variant K417N, E484K, …; assay: ELISA (FIG. 18C)
[26] = molecular target: T8, SARS-CoV-2 RBD variant K417V, N439K …; assay: ELISA (FIG. 18C)
[27] = molecular target: T9, SARS-CoV-2 RBD variant N439K (Europe); assay: ELISA (FIG. 18C)
[28] = molecular target: T1, SARS-CoV-2 RBD variant E484K (New York); assay: ELISA (FIG. 18E)
[29] = molecular target: T2, SARS-CoV-2 RBD variant K417T, E484K, …; assay: ELISA (FIG. 18E)
[30] = molecular target: T3, SARS-CoV-2 RBD variant S477N (New York); assay: ELISA (FIG. 18E)
[31] = molecular target: T4, SARS-CoV-2 RBD variant N501Y (UK); assay: ELISA (FIG. 18E)
[32] = molecular target: T5, SARS-CoV-2 RBD variant L452R …; assay: ELISA (FIG. 18E)
[33] = molecular target: T6, SARS-CoV-2 RBD variant E484Q, L452R …; assay: ELISA (FIG. 18E)
[34] = molecular target: T7, SARS-CoV-2 RBD variant K417N, E484K, …; assay: ELISA (FIG. 18E)
[35] = molecular target: T8, SARS-CoV-2 RBD variant K417V, N439K …; assay: ELISA (FIG. 18E)
[36] = molecular target: T9, SARS-CoV-2 RBD variant N439K (Europe); assay: ELISA (FIG. 18E)

Measured: binding result

B1: A-2F1 antibody (format in FIG. 18 not stated) (antibody, V domains shown)
VH: QVQLVQSGGGLIQPGGSLRLSCAASGVTVSSNYMSWVRQAPGKGLEWVSVIYSGGSTFYADSVKGRFTISRDNSKNTLYLQMNSLRAEDTAVYYCARDLMEAGGMDVWGQGSTVTVSS
VL: ELALTQPPSASGSPGQSVTISCTASSSDIGASNHVAWYQQNPGKAPKLMIYGVSGRPSGVPDRFSGSKSGNTASLTVSGLQAEDEADYYCSSYAGSNILIFGGGTKLTVL
binds: [1] | [2] | [3] | [4] | [5] | [6] | [7] | [8] | [9]

B2: A-1H4 antibody (format in FIG. 18 not stated) (antibody, V domains shown)
VH: EVQLVESGGGLVQPGRSLRLSCAASGFTVSSNYMSWVRQAPGKGLEWVSGIYSGGSTYYADSVKGRFTISRDNSKNTLYLQMNSLRAEDTAVYYCARDLQEAGAFDIWGQGTMVTVSS
VL: ELQLTQSPSFLSASVGDRVTITCRASQGISSYLAWYQQKPGKAPKLLIYAASTLQSGVPSRFSGSGSGTEFTLTISSLQPEDFATYYCQQLNSYPRLTFGGGTKVEIK
binds: [10] | [11] | [12] | [13] | [14] | [15] | [16] | [17] | [18]

B3: A-2H4 antibody (format in FIG. 18 not stated) (antibody, V domains shown)
VH: QMQLVESGGGLVQPGRSLRLSCAASGFTFSVYGMHWVRQAPGKGLEWVAVISYDGSNKYYADSVKGRFSISRDNSKNTLYLQMNSLRGEDTAVYYCAKGGPRPVVKAYGELDYYGMDVWGQGTTVTVSS
VL: ELALTQPASVSGSPGQSITISCTGTSSDIGGYEYVSWYQQHPGKAPKLIIYDVRDRPSGISNRFSGSKSGNTASLIISSLQAGDEADYYCFSYTSSGTYVFGSATKVTVL
binds: [19] | [20] | [21] | [22] | [23] | [24] | [25] | [26] | [27]

B4: E-3G9 antibody (format in FIG. 18 not stated) (antibody, V domains shown)
VH: QMQLVQSGAEVKKPGASVKVSCKASGHTITSYYMHWVRQAPGQGLEWMGIINPSGGSTSYAQKFQGRVTMTRDTSTSTVYMELSSLRSEDTAVYYCAREGVWDSSGYSSFDYWGQGTLVTVSS
VL: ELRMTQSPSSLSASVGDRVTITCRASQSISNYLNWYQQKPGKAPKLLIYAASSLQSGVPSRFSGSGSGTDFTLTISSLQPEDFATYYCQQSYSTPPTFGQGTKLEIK
binds: [28] | [29] | [30] | [31] | [32] | [33] | [34] | [35] | [36]
